Test results taken from the supplement of paper PMC12764529.
± gives the half width of the 95% confidence interval.

How the values were obtained:
[1] = folding stability dG unfold from trypsin proteolysis; higher = more stable
Procedure, shortened: (§1)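 Unfolding free energy was derived, per protease or combined, by relating Bayesian-fitted K50 values from sequencing counts to a sequence-predicted unfolded-state K50 and a shared folded-state K50. The underlying digests exposed cysteine-free mini-proteins under 80 residues, in a PA-tagged cDNA display construct, to trypsin and chymotrypsin at 11 threefold-diluted concentrations and to a no-protease condition. A filter kept only designs with AlphaFold2 dimer inter-PAE above 15.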

[2] = folding stability dG unfold from chymotrypsin proteolysis; higher = more stable
Procedure, shortened: as §1

[3] = folding stability dG unfold (combined trypsin and chymotrypsin); higher = more stable
Procedure, shortened: as §1

Sequence	folding stability dG unfold [1]	folding stability dG unfold [2]	folding stability dG unfold [3]
SAGGSAGGVERIKKLLEELGAEVVKVEKLENGKTLIYIKVKSEEQREALKALLPEEDIEIIEPESAGGSAGG [r6_83_TrROS_Hall]	4.69 ± 0.58 kcal/mol	4.47 ± 0.17 kcal/mol	4.43 ± 0.17 kcal/mol
SAGGSAGGVKEALEELLKKLKPGEKKTITLEIEVDGKLVKIEIEVLPDGEIKITKIEEIPKEDLSAGGSAGG [r6_87_TrROS_Hall]	2.97 ± 0.12 kcal/mol	1.95 ± 0.096 kcal/mol	2.47 ± 0.16 kcal/mol
SAGGSAGGVKIEVETRTETLPDGSTRTVMRVKIELPAPPPPPPPPTRTVTETTEDGETRTTTVRSAGGSAGG [r6_778_TrROS_Hall]	0.626 ± 0.13 kcal/mol	2.07 ± 0.066 kcal/mol	1.64 ± 0.17 kcal/mol
SAGGSAGGVPEVVEEVAREVDPRIVTRVEVRVFEPPPEYRLVVVVVELRLPTERRFVPRVVRLRSAGGSAGG [r6_630_TrMRF]	2.85 ± 0.19 kcal/mol	3.49 ± 0.066 kcal/mol	3.25 ± 0.31 kcal/mol
SAGGSAGGVVPLEELAKRLGWSPEFLRELEEKGIKVELERVTPDKVVVTLTEPGTGETKTIELPSAGGSAGG [r6_969_JUSTAS]	3.19 ± 0.24 kcal/mol	2.82 ± 0.13 kcal/mol	3.08 ± 0.17 kcal/mol
SAGGSAGGWIEIDPETGTIEIWMPPNDIEPLVDEIAEELGWKVKVKVEPNPEGWVRHTITIPPKSAGGSAGG [r6_419_TrROS]	-0.109 ± 0.087 kcal/mol	0.281 ± 0.35 kcal/mol	0.39 ± 0.23 kcal/mol
SAGGSAGGWIEINILVPLKPGQTPSELADEIAQEFQNQHGWEIKIDDVYPTDNYVWHKIEITPPSAGGSAGG [r6_639_TrROS]	0.864 ± 0.031 kcal/mol	1.49 ± 0.055 kcal/mol	1.29 ± 0.083 kcal/mol
SAGGSAGGWIIRIHFPNGHEHTFKIKSPEEAKDRIMDHHGMPPDKIPPETIKDVEIIPPDAMKESAGGSAGG [r6_588_TrROS]	-0.0377 ± 0.11 kcal/mol	0.604 ± 0.12 kcal/mol	0.434 ± 0.18 kcal/mol
SAGGSAGGWITLDLIKELAREAMNQAQLNGMENVPIEIRWPDGWRIKIEINMNKVEVDVQPWNDSAGGSAGG [r6_270_TrROS]	1.9 ± 0.11 kcal/mol	2.57 ± 0.079 kcal/mol	2.4 ± 0.15 kcal/mol
SAGGSAGGWKIIEVDPKKGVVMIEMDPEEGNWYVRVPNGPIQRFDSPEEIEEKFGFPVEIYPLPSAGGSAGG [r6_753_TrROS]	1.3 ± 0.098 kcal/mol	0.816 ± 0.092 kcal/mol	1.14 ± 0.17 kcal/mol
SAGGSAGGYWKVEIKNGMTFSIPGMTLDEAKNHARWHGFPMPIDKIEIEPVKPPPPPPKDPDDQSAGGSAGG [r6_688_TrROS]	2.27 ± 0.14 kcal/mol	2.95 ± 0.22 kcal/mol	2.75 ± 0.35 kcal/mol
SAGGSAGGYWMISVKIYDPEDGKPIAQMTFMFDSPEEAERIVEEIADALPPGYRVEVDIHPIPNSAGGSAGG [r6_690_TrROS]	3.82 ± 0.12 kcal/mol	4.99 ± 0.14 kcal/mol	4.85 ± 0.16 kcal/mol
SAGGSAGIEERLKKLAEELGLEVKVTKVEVKVDGKEEVVVEVEVEPPPPPVEVKELSEEERKKAEESAGGSA [r15_256_TrROS_Hall]	1.27 ± 0.21 kcal/mol	0.99 ± 0.19 kcal/mol	1.13 ± 0.23 kcal/mol
SAGGSAGIEVHPEGTVRIEVGGRSLTVTPADAVDVTQEGDKIVVTITRRDADGTPVGTLPVTVELASAGGSA [r15_424_JUSTAS]	-0.75 ± 0.088 kcal/mol	0.835 ± 0.018 kcal/mol	0.52 ± 0.045 kcal/mol
SAGGSAGLPEAIAEAIARELQAEPGYELDVEAEVDPETGTLHIRARVRLPDDDTWFELEITVPLPASAGGSA [r15_464_TrMRF]	1.75 ± 0.084 kcal/mol	3.22 ± 0.12 kcal/mol	2.93 ± 0.13 kcal/mol
SAGGSAGMDPSKVSLSISTKTYTDTATGRKVEELYFEGSGKKVTVTTLPDGTKIVTYENGVVIEVESAGGSA [r15_617_JUSTAS]	0.758 ± 0.024 kcal/mol	-0.672 ± 0.24 kcal/mol	0.314 ± 0.054 kcal/mol
SAGGSAGMIEVEIRPTPEGGYEVLVKFYGPGGVEVEEKKYRFGSEEEAKKFLEELAKKNGYSVKIRSAGGSA [r15_242_JUSTAS]	2.11 ± 0.056 kcal/mol	3.74 ± 0.027 kcal/mol	3.3 ± 0.067 kcal/mol
SAGGSAGMMKVTTTPVSADTVRVTVTVPGGPFTVTVTQNGVPLLTRTVPADATLTITLPPNATVVGSAGGSA [r15_581_JUSTAS]	1.91 ± 0.098 kcal/mol	1.94 ± 0.078 kcal/mol	1.94 ± 0.14 kcal/mol

Sequence	folding stability dG unfold [1]	folding stability dG unfold [2]	folding stability dG unfold [3]
SAGGSAGMMPTKITVTLTLPPDAPDVEAVAERLAAELGVEVSNAEVLEVRRLPDGSREVVIELTLLSAGGSA [r15_654_JUSTAS]	4.2 ± 0.18 kcal/mol	4.18 ± 0.094 kcal/mol	4.17 ± 0.1 kcal/mol
SAGGSAGMNSEITLTIPVPHPRDEEGRVLPLSPEAIEKELKEKGYNVKIKEVKTSPSTITVTLKIISAGGSA [r15_225_JUSTAS]	0.864 ± 0.053 kcal/mol	1 ± 0.082 kcal/mol	0.957 ± 0.072 kcal/mol
SAGGSAGMPSVPVERTVTVTVVDAEGNLVGTVTLTLTFPGGVSEEEREAAIAAAIEAAVPPAGVVSSAGGSA [r15_310_JUSTAS]	2.56 ± 0.077 kcal/mol	2.26 ± 0.059 kcal/mol	2.41 ± 0.076 kcal/mol
SAGGSAGMSTVTVPLTVELVDPNNGNLKKVIERPLTVPAELSLDEVKEIVREEAKKEGLTIAKILLSAGGSA [r15_195_JUSTAS]	-0.122 ± 0.21 kcal/mol	-0.0556 ± 0.092 kcal/mol	0.00724 ± 0.13 kcal/mol
SAGGSAGMVLVRTPDGEVLLLPFTSPEEAEEALERLTGGRLVSVRLEGTPGDRLLLVAEVERPPGGSAGGSA [r15_447_TrMRF]	1.88 ± 0.045 kcal/mol	2.16 ± 0.059 kcal/mol	2.06 ± 0.11 kcal/mol
SAGGSAGMVVEVREFEIEPDEDKKIKATLERYETPEGPRYVLTIEDPSKNEKKSYPLEPGVDFKKLSAGGSA [r15_75_JUSTAS]	-0.0245 ± 0.26 kcal/mol	0.681 ± 0.14 kcal/mol	0.488 ± 0.2 kcal/mol
SAGGSAGPLPNEKVEVTLTIPLNVLVLDEDGEPLTPEEIARRVRELFSDVSVTLEPGDRLVITLTESAGGSA [r15_645_TrMRF]	2.006 ± 0.015 kcal/mol	1.7 ± 0.022 kcal/mol	1.85 ± 0.049 kcal/mol
SAGGSAGRSRPLRLRFENPENGLRTEVELRVFEIGDYRVILLRERTYHPDTPGLSERDLLILLPPESAGGSA [r15_960_TrMRF]	3.03 ± 0.058 kcal/mol	3.508 ± 0.023 kcal/mol	3.35 ± 0.1 kcal/mol
SAGGSAGSMSEIEGLTVLEEREEPDPATGTTVPTLVVRDPEKGELYVITATTDPATGKPTYSFDLVSAGGSA [r15_170_JUSTAS]	0.871 ± 0.03 kcal/mol	0.0106 ± 0.072 kcal/mol	0.595 ± 0.047 kcal/mol
SAGGSAGSYLVRVRIRRPEDGKELADAVFEVPPDEPVTAEAILKELGIPPEEAKNIEIEVEVFELGSAGGSA [r15_665_TrMRF]	2.26 ± 0.049 kcal/mol	3.05 ± 0.031 kcal/mol	2.75 ± 0.061 kcal/mol
SAGGSAGVSTSKGSSVTTLKIDYKDDVVIKYSYNPSTGTVYTTVIDPETGNPVTVETYSVSPDVPLSAGGSA [r15_425_JUSTAS]	0.649 ± 0.014 kcal/mol	1.26 ± 0.084 kcal/mol	1.02 ± 0.037 kcal/mol
SAGGSAIIVIEIEMGGKPVPIMIPIPPNMPPEDAREEIKELAKQEVRDPDGKPVRVKIEVIPPPPESAGGSA [r15_246_TrROS]	0.163 ± 0.059 kcal/mol	0.945 ± 0.031 kcal/mol	0.626 ± 0.11 kcal/mol
SAGGSAIKVSTSPSDVSVSKVPLPNGETLTIEVSSNGETTVTKTSPTPGTPTTTTVPGASVEELLESAGGSA [r15_406_JUSTAS]	0.331 ± 0.034 kcal/mol	0.974 ± 0.02 kcal/mol	0.762 ± 0.031 kcal/mol
SAGGSAIPGMPIKEIARALQDKFPPGKPPQIKIRNKNGETKTFEPNKTIDDIPMDGVVEIEIEFRPSAGGSA [r15_50_TrROS]	-0.52 ± 0.62 kcal/mol	0.0124 ± 0.075 kcal/mol	0.0509 ± 0.19 kcal/mol
SAGGSAITIEVTMNPNGYMGIRLRDPGNGEEIQIPFPMEPGQNPEDVRNWAREIVDELKKDGWRIYSAGGSA [r15_1022_TrROS]	1.28 ± 0.019 kcal/mol	1.76 ± 0.11 kcal/mol	1.59 ± 0.038 kcal/mol
SAGGSAKDEKVVVIVRREVRLRSRPKVDLGEGNPRVEFESSVEVRVPFLVLPEDDPVARELRELEGSAGGSA [r15_470_TrMRF]	-0.46 ± 0.21 kcal/mol	-0.255 ± 0.24 kcal/mol	-0.26 ± 0.1 kcal/mol
SAGGSAKELIIKIKIKVKVNGKTYEIEIEIKAESIEEAIEAIKKKLEEEGLEIEIVEIEIIPKEELSAGGSA [r15_165_TrROS_Hall]	3 ± 0.086 kcal/mol	3.08 ± 0.081 kcal/mol	2.99 ± 0.1 kcal/mol
SAGGSAKEWVWVISIKYRYPNGEPLAPIPIMIPPDDPEIDIDEIADEIARKHGLDEIEVNIHPIPVSAGGSA [r15_333_TrROS]	1.59 ± 0.052 kcal/mol	2.03 ± 0.12 kcal/mol	1.9 ± 0.14 kcal/mol
